Series [1] addresses T1, hsRosR (Halobacterium salinarum (Halobacterium …, UniProt Q9HSF4 1-116)).
T1 sequence: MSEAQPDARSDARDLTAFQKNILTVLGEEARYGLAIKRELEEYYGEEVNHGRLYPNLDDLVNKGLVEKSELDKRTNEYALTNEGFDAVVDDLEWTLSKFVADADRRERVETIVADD
The experiment in a line: X-ray crystallography.

Series [2] addresses T1, hsRosR. The series can be described thus: fluorescence anisotropy.
Series [3] concerns the target T1, hsRosR. The experiment in a line: fluorescence anisotropy. This is another data set of the same source. On the technique in general: Fluorescence polarisation rises when a labelled molecule tumbles more slowly, as on binding a larger partner.
Series [4] addresses T1, hsRosR. The series can be described thus: X-ray crystallography. This is another data set of the same source.
Series [5] concerns the target T1, hsRosR. The series can be described thus: ITC. (ITC needs no label: the signal is the heat of the interaction.)
Series [6] has as its target T1, hsRosR. The series can be described thus: fluorescence anisotropy. The source holds these as a separate data set.
The target in series [7] is T1, hsRosR. The experiment in a line: fluorescence anisotropy. The source holds these as a separate data set.
Series [8] has as its target T1, hsRosR. The series can be described thus: fluorescence anisotropy. The source holds these as a separate data set.
Series [9] concerns the target T1, hsRosR. The experiment in a line: fluorescence anisotropy. This is another data set of the same source.
Series [10] addresses T1, hsRosR. The experiment in a line: ITC. The source holds these as a separate data set.
For series [11], the target named is T1, hsRosR. The experiment in a line: fluorescence anisotropy. The source holds these as a separate data set.
In series [12] the target is T1, hsRosR. The series can be described thus: X-ray crystallography. This is another data set of the same source.

B1: S4 (28 bp) (dsDNA)
DNA 1: CCGAAGTGTAAACGCGTTGACATGTGGT
DNA 2: ACCACATGTCAACGCGTTTACACTTCGG
In the case of B1, the binding result with hsRosR [1] is reported as “binds”.

B2: S1 (35 bp) (dsDNA)
DNA 1: GCGAGGTGTAAATTGTCTGACATGTTCTTATTGGG
DNA 2: CCCAATAAGAACATGTCAGACAATTTACACCTCGC
What is called Kd is a measure of binding affinity in units of concentration. Higher therefore signals weaker binding. In turn, B2 gave a Kd with hsRosR [2] of 49.3 ± 6.18 nM.

B3: GS2 (second) (dsDNA)
DNA 1: TTGAATTTGTGGGGGCAGGGACAGCCCTGA
DNA 2: TCAGGGCTGTCCCTGCCCCCACAAATTCAA
In the case of B3, the binding result in the series with hsRosR [2] was “no binding”.

B4: S1 (28 bp) (dsDNA)
DNA 1: GCGAGGTGTAAATTGTCTGACATGTTCT
DNA 2: AGAACATGTCAGACAATTTACACCTCGC
As for B4, in the series with hsRosR [2], binding was put at a Kd of 53.5 ± 6.54 nM.

B5: GS2 (first) (dsDNA)
DNA 1: ATCGGGACAATCGCGTCTCTGTCGATCG
DNA 2: CGATCGACAGAGACGCGATTGTCCCGAT
On to B5, for which, in the series with hsRosR [2], the binding result is reported as “no binding”.

B6: S5 (35 bp) (dsDNA)
DNA 1: GCGAAGTGTCATCCCTCTTACATGACTTGTCTTGG
DNA 2: CCAAGACAAGTCATGTAAGAGGGATGACACTTCGC
In the series with hsRosR [3], B6 showed a dissociation constant (Kd) of 99.5 ± 10.6 nM.

B7: S4 (35 bp) (dsDNA)
DNA 1: GCCCGAAGTGTAAACGCGTTGACATGTGGTGCTGG
DNA 2: CCAGCACCACATGTCAACGCGTTTACACTTCGGGC
Molecule B7 displayed a Kd in the series with hsRosR [3] of 91.6 ± 13.2 nM.

B8: SG (28 bp) (dsDNA)
DNA 1: GCGACGTGTATTTCCCCTGACACTAGCG
DNA 2: CGCTAGTGTCAGGGGAAATACACGTCGC
Regarding B8, the binding result in the series with hsRosR [4] was “binds”.

B9: S1 (25 bp) (dsDNA)
DNA 1: GTGTAAATTGTCTGACATGTTCTTA
DNA 2: TAAGAACATGTCAGACAATTTACAC
On to B9, for which the equilibrium dissociation constant (Kd) with hsRosR [2] came out at 37.2 ± 2.36 nM; in the series with hsRosR [5], 91 ± 3.25 nM; in the series with hsRosR [6], 25.9 ± 2.02 nM; with hsRosR [7] it was 24 ± 3.37 nM; with hsRosR [8] it was 169 ± 30.2 nM; with hsRosR [9] it was 80.2 ± 10.2 nM. The Kd stood at 259 ± 9.75 nM with hsRosR [10] and 78.3 ± 8.34 nM with hsRosR [11].

B10: GS1 (dsDNA)
DNA 1: TAATAGACAGGGAGATCGATGTCTGCTA
DNA 2: TAGCAGACATCGATCTCCCTGTCTATTA
Consider B10, for which, in the series with hsRosR [2], the binding result was “no binding”.

B11: S3 (dsDNA)
DNA 1: GCACATGTAAGTCTATTGACATGTTCTTTCCCTCG
DNA 2: CGAGGGAAAGAACATGTCAATAGACTTACATGTGC
For B11, in the series with hsRosR [3], binding was characterised by a dissociation constant (Kd) of 68 ± 11.3 nM.

B12: GS5 (dsDNA)
DNA 1: AGCGAGGACACTGCTGGCGGTGTCGCCGTC
DNA 2: GACGGCGACACCGCCAGCAGTGTCCTCGCT
For B12, the binding result with hsRosR [2] is listed as “no binding”.

B13: S2 (dsDNA)
DNA 1: GCGCTCATGTCAACCTTCTTACACTTCCTCTCCCG
DNA 2: CGGGAGAGGAAGTGTAAGAAGGTTGACATGAGCGC
For the molecule B13, the Kd with hsRosR [3] was found to be 60.1 ± 18.8 nM.

B14: S5 (28 bp) (dsDNA)
DNA 1: GCGAAGTGTCATCCCTCTTACATGACTT
DNA 2: AAGTCATGTAAGAGGGATGACACTTCGC
For the molecule B14, the binding result in the series with hsRosR [12] is “binds”.

The record behind these values is PMC7145548.
